# Measurements taken from patent publication US20140087995A1 (published 2014).
# Numbered stars: 1 amine (or outer) side, 2 acyl side, 3 side chain; on linkers, the order of the positions; unused ones are H or OH. Bridge positions count the residues as written; N and C are the ends. Side chains are listed from the residue outwards. Ends that are not written are not given here. * marks the point of attachment. C20 diacid = O=C(O)CCCCCCCCCCCCCCCCCCC(=O)*; γGlu = O=C(O)[C@H](CCC(=O)[*:2])N[*:1]; AEEA = NCCOCCOCC(=O)O
# T1: human amylin receptor (amylin 3(a) receptor: human calcitonin receptor coexpressed with RAMP-3) (human, UniProt P30988 25-474; O60896 24-148)
# T1 sequence (looked up) 1: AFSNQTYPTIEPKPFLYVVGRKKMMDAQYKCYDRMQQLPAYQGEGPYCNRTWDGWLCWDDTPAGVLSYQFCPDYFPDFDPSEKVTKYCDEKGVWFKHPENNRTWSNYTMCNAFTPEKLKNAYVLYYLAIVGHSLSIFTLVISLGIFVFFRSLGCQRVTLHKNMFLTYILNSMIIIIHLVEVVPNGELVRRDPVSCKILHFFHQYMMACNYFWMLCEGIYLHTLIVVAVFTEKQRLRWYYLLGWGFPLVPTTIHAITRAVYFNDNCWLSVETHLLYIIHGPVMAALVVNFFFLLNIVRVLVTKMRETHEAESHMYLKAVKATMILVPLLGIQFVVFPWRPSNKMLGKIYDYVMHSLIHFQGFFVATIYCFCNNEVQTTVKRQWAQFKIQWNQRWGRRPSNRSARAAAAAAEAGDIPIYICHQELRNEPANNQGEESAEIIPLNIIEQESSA
# T1 sequence (looked up) 2: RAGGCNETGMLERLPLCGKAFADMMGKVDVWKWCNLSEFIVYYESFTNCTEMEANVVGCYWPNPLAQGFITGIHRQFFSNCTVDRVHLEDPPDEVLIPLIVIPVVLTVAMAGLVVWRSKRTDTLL
# T2: human calcitonin receptor (human, UniProt P30988 25-474)
# T2 sequence (looked up): T1 sequence (looked up) 1
# B1: N^ε1-[2-[2-[2-[[(4S)-4-carboxy-4-(19-carboxynonadecanoylamino)butanoyl]amino]ethoxy]ethoxy]acetyl]-[His14,Arg17,Pro21,Pro27,Arg34]-h-amylin (peptide)
# peptide: K([AEEA-γGlu-C20 diacid])CNTATCATQRLAHFLRHSSPNFGAIPSSTNVGRNTY-NH2
# modifications: disulfide 2-7; N-terminus assumed
# SMILES: CC[C@H](C)[C@H](NC(=O)[C@H](C)NC(=O)CNC(=O)[C@H](Cc1ccccc1)NC(=O)[C@H](CC(N)=O)NC(=O)[C@@H]1CCCN1C(=O)[C@H](CO)NC(=O)[C@H](CO)NC(=O)[C@H](Cc1c[nH]cn1)NC(=O)[C@H](CCCNC(=N)N)NC(=O)[C@H](CC(C)C)NC(=O)[C@H](Cc1ccccc1)NC(=O)[C@H](Cc1c[nH]cn1)NC(=O)[C@H](C)NC(=O)[C@H](CC(C)C)NC(=O)[C@H](CCCNC(=N)N)NC(=O)[C@H](CCC(N)=O)NC(=O)[C@@H](NC(=O)[C@H](C)NC(=O)[C@@H]1CSSC[C@H](NC(=O)[C@@H](N)CCCCNC(=O)COCCOCCNC(=O)CC[C@H](NC(=O)CCCCCCCCCCCCCCCCCCC(=O)O)C(=O)O)C(=O)N[C@@H](CC(N)=O)C(=O)N[C@@H]([C@@H](C)O)C(=O)N[C@@H](C)C(=O)N[C@@H]([C@@H](C)O)C(=O)N1)[C@@H](C)O)C(=O)N1CCC[C@H]1C(=O)N[C@@H](CO)C(=O)N[C@@H](CO)C(=O)N[C@H](C(=O)N[C@@H](CC(N)=O)C(=O)N[C@H](C(=O)NCC(=O)N[C@@H](CCCNC(=N)N)C(=O)N[C@@H](CC(N)=O)C(=O)N[C@H](C(=O)N[C@@H](Cc1ccc(O)cc1)C(N)=O)[C@@H](C)O)C(C)C)[C@@H](C)O
# notes: also called compound 84
# B2: N^ε1-[(4S)-4-carboxy-4-(19-carboxynonadecanoylamino)butanoyl]-[Asp14,Arg17,Pro21,Pro27,Pro34,Arg35]-h-amylin (peptide)
# peptide: K([γGlu-C20 diacid])CNTATCATQRLADFLRHSSPNFGAIPSSTNVGPRTY-NH2
# modifications: disulfide 2-7; N-terminus assumed
# SMILES: CC[C@H](C)[C@H](NC(=O)[C@H](C)NC(=O)CNC(=O)[C@H](Cc1ccccc1)NC(=O)[C@H](CC(N)=O)NC(=O)[C@@H]1CCCN1C(=O)[C@H](CO)NC(=O)[C@H](CO)NC(=O)[C@H](Cc1c[nH]cn1)NC(=O)[C@H](CCCNC(=N)N)NC(=O)[C@H](CC(C)C)NC(=O)[C@H](Cc1ccccc1)NC(=O)[C@H](CC(=O)O)NC(=O)[C@H](C)NC(=O)[C@H](CC(C)C)NC(=O)[C@H](CCCNC(=N)N)NC(=O)[C@H](CCC(N)=O)NC(=O)[C@@H](NC(=O)[C@H](C)NC(=O)[C@@H]1CSSC[C@H](NC(=O)[C@@H](N)CCCCNC(=O)CC[C@H](NC(=O)CCCCCCCCCCCCCCCCCCC(=O)O)C(=O)O)C(=O)N[C@@H](CC(N)=O)C(=O)N[C@@H]([C@@H](C)O)C(=O)N[C@@H](C)C(=O)N[C@@H]([C@@H](C)O)C(=O)N1)[C@@H](C)O)C(=O)N1CCC[C@H]1C(=O)N[C@@H](CO)C(=O)N[C@@H](CO)C(=O)N[C@H](C(=O)N[C@@H](CC(N)=O)C(=O)N[C@H](C(=O)NCC(=O)N1CCC[C@H]1C(=O)N[C@@H](CCCNC(=N)N)C(=O)N[C@H](C(=O)N[C@@H](Cc1ccc(O)cc1)C(N)=O)[C@@H](C)O)C(C)C)[C@@H](C)O
# B3: N^ε1-[2-[2-[2-[[(4S)-4-carboxy-4-(19-carboxynonadecanoylamino)butanoyl]amino]ethoxy]ethoxy]acetyl]-[His14,Arg17,Pro21,Pro27,His34]-h-amylin (peptide)
# peptide: K([AEEA-γGlu-C20 diacid])CNTATCATQRLAHFLRHSSPNFGAIPSSTNVGHNTY-NH2
# modifications: disulfide 2-7; N-terminus assumed
# SMILES: CC[C@H](C)[C@H](NC(=O)[C@H](C)NC(=O)CNC(=O)[C@H](Cc1ccccc1)NC(=O)[C@H](CC(N)=O)NC(=O)[C@@H]1CCCN1C(=O)[C@H](CO)NC(=O)[C@H](CO)NC(=O)[C@H](Cc1c[nH]cn1)NC(=O)[C@H](CCCNC(=N)N)NC(=O)[C@H](CC(C)C)NC(=O)[C@H](Cc1ccccc1)NC(=O)[C@H](Cc1c[nH]cn1)NC(=O)[C@H](C)NC(=O)[C@H](CC(C)C)NC(=O)[C@H](CCCNC(=N)N)NC(=O)[C@H](CCC(N)=O)NC(=O)[C@@H](NC(=O)[C@H](C)NC(=O)[C@@H]1CSSC[C@H](NC(=O)[C@@H](N)CCCCNC(=O)COCCOCCNC(=O)CC[C@H](NC(=O)CCCCCCCCCCCCCCCCCCC(=O)O)C(=O)O)C(=O)N[C@@H](CC(N)=O)C(=O)N[C@@H]([C@@H](C)O)C(=O)N[C@@H](C)C(=O)N[C@@H]([C@@H](C)O)C(=O)N1)[C@@H](C)O)C(=O)N1CCC[C@H]1C(=O)N[C@@H](CO)C(=O)N[C@@H](CO)C(=O)N[C@H](C(=O)N[C@@H](CC(N)=O)C(=O)N[C@H](C(=O)NCC(=O)N[C@@H](Cc1c[nH]cn1)C(=O)N[C@@H](CC(N)=O)C(=O)N[C@H](C(=O)N[C@@H](Cc1ccc(O)cc1)C(N)=O)[C@@H](C)O)C(C)C)[C@@H](C)O
# notes: also called compound 80
# B4: N^ε1-[(4S)-4-carboxy-4-(19-carboxynonadecanoylamino)butanoyl]-[Glu14,Arg17,Pro21,Pro27,His35]-h-amylin (peptide)
# peptide: K([γGlu-C20 diacid])CNTATCATQRLAEFLRHSSPNFGAIPSSTNVGSHTY-NH2
# modifications: disulfide 2-7; N-terminus assumed
# SMILES: CC[C@H](C)[C@H](NC(=O)[C@H](C)NC(=O)CNC(=O)[C@H](Cc1ccccc1)NC(=O)[C@H](CC(N)=O)NC(=O)[C@@H]1CCCN1C(=O)[C@H](CO)NC(=O)[C@H](CO)NC(=O)[C@H](Cc1c[nH]cn1)NC(=O)[C@H](CCCNC(=N)N)NC(=O)[C@H](CC(C)C)NC(=O)[C@H](Cc1ccccc1)NC(=O)[C@H](CCC(=O)O)NC(=O)[C@H](C)NC(=O)[C@H](CC(C)C)NC(=O)[C@H](CCCNC(=N)N)NC(=O)[C@H](CCC(N)=O)NC(=O)[C@@H](NC(=O)[C@H](C)NC(=O)[C@@H]1CSSC[C@H](NC(=O)[C@@H](N)CCCCNC(=O)CC[C@H](NC(=O)CCCCCCCCCCCCCCCCCCC(=O)O)C(=O)O)C(=O)N[C@@H](CC(N)=O)C(=O)N[C@@H]([C@@H](C)O)C(=O)N[C@@H](C)C(=O)N[C@@H]([C@@H](C)O)C(=O)N1)[C@@H](C)O)C(=O)N1CCC[C@H]1C(=O)N[C@@H](CO)C(=O)N[C@@H](CO)C(=O)N[C@H](C(=O)N[C@@H](CC(N)=O)C(=O)N[C@H](C(=O)NCC(=O)N[C@@H](CO)C(=O)N[C@@H](Cc1c[nH]cn1)C(=O)N[C@H](C(=O)N[C@@H](Cc1ccc(O)cc1)C(N)=O)[C@@H](C)O)C(C)C)[C@@H](C)O
# B5: N^ε1-[(4S)-4-carboxy-4-(19-carboxynonadecanoylamino)butanoyl]-[Arg17,Pro21,Pro27,Arg34]-h-amylin (peptide)
# peptide: K([γGlu-C20 diacid])CNTATCATQRLANFLRHSSPNFGAIPSSTNVGRNTY-NH2
# modifications: disulfide 2-7; N-terminus assumed
# SMILES: CC[C@H](C)[C@H](NC(=O)[C@H](C)NC(=O)CNC(=O)[C@H](Cc1ccccc1)NC(=O)[C@H](CC(N)=O)NC(=O)[C@@H]1CCCN1C(=O)[C@H](CO)NC(=O)[C@H](CO)NC(=O)[C@H](Cc1c[nH]cn1)NC(=O)[C@H](CCCNC(=N)N)NC(=O)[C@H](CC(C)C)NC(=O)[C@H](Cc1ccccc1)NC(=O)[C@H](CC(N)=O)NC(=O)[C@H](C)NC(=O)[C@H](CC(C)C)NC(=O)[C@H](CCCNC(=N)N)NC(=O)[C@H](CCC(N)=O)NC(=O)[C@@H](NC(=O)[C@H](C)NC(=O)[C@@H]1CSSC[C@H](NC(=O)[C@@H](N)CCCCNC(=O)CC[C@H](NC(=O)CCCCCCCCCCCCCCCCCCC(=O)O)C(=O)O)C(=O)N[C@@H](CC(N)=O)C(=O)N[C@@H]([C@@H](C)O)C(=O)N[C@@H](C)C(=O)N[C@@H]([C@@H](C)O)C(=O)N1)[C@@H](C)O)C(=O)N1CCC[C@H]1C(=O)N[C@@H](CO)C(=O)N[C@@H](CO)C(=O)N[C@H](C(=O)N[C@@H](CC(N)=O)C(=O)N[C@H](C(=O)NCC(=O)N[C@@H](CCCNC(=N)N)C(=O)N[C@@H](CC(N)=O)C(=O)N[C@H](C(=O)N[C@@H](Cc1ccc(O)cc1)C(N)=O)[C@@H](C)O)C(C)C)[C@@H](C)O
# notes: also called compound 79
# B6: N^ε1-[(4S)-4-carboxy-4-(19-carboxynonadecanoylamino)butanoyl]-[Arg14,Arg17,Pro21,Pro27]-h-amylin (peptide)
# peptide: K([γGlu-C20 diacid])CNTATCATQRLARFLRHSSPNFGAIPSSTNVGSNTY-NH2
# modifications: disulfide 2-7; N-terminus assumed
# SMILES: CC[C@H](C)[C@H](NC(=O)[C@H](C)NC(=O)CNC(=O)[C@H](Cc1ccccc1)NC(=O)[C@H](CC(N)=O)NC(=O)[C@@H]1CCCN1C(=O)[C@H](CO)NC(=O)[C@H](CO)NC(=O)[C@H](Cc1c[nH]cn1)NC(=O)[C@H](CCCNC(=N)N)NC(=O)[C@H](CC(C)C)NC(=O)[C@H](Cc1ccccc1)NC(=O)[C@H](CCCNC(=N)N)NC(=O)[C@H](C)NC(=O)[C@H](CC(C)C)NC(=O)[C@H](CCCNC(=N)N)NC(=O)[C@H](CCC(N)=O)NC(=O)[C@@H](NC(=O)[C@H](C)NC(=O)[C@@H]1CSSC[C@H](NC(=O)[C@@H](N)CCCCNC(=O)CC[C@H](NC(=O)CCCCCCCCCCCCCCCCCCC(=O)O)C(=O)O)C(=O)N[C@@H](CC(N)=O)C(=O)N[C@@H]([C@@H](C)O)C(=O)N[C@@H](C)C(=O)N[C@@H]([C@@H](C)O)C(=O)N1)[C@@H](C)O)C(=O)N1CCC[C@H]1C(=O)N[C@@H](CO)C(=O)N[C@@H](CO)C(=O)N[C@H](C(=O)N[C@@H](CC(N)=O)C(=O)N[C@H](C(=O)NCC(=O)N[C@@H](CO)C(=O)N[C@@H](CC(N)=O)C(=O)N[C@H](C(=O)N[C@@H](Cc1ccc(O)cc1)C(N)=O)[C@@H](C)O)C(C)C)[C@@H](C)O
# notes: also called compound 83
# Target: T1, human amylin receptor (amylin 3(a) …)
# Test: cell-based or functional assay
row,Binder,hAmylin-R funct. EC50 (pM)
1,B1,169
2,B2,146
3,B3,139
4,B4,425
5,B5,161
6,B6,405

# Target: T2, human calcitonin receptor
# Test: cell-based or functional assay
Binder,hCTR funct. EC50 (pM),Ratio hCT/hAmylin funct.
B1,5490,
B2,3640,24.9
B3,2140,15.4
B4,5580,13.1
B5,3940,
B6,16800,
